Legend:
[1] = target: T1, CD22 on Daudi cells (Daudi cell line expressing a high level of CD22) (UniProt P20273 20-847, limits assumed); test: cell-based or functional assay
[2] = target: T1, CD22 on Daudi cells (Daudi cell line …); test: cell-based or functional assay; remark: listed apart in the source
[3] = target: T2, recombinant human Siglec-2/CD22 Fc chimera protein (R&D systems, Cat #1968-SL) (human, UniProt P20273 20-687); test: ELISA, immobilized human CD22 Fc chimera
T2 construct: Bought reagent, immobilized antigen in the ELISA; Fc part of the bought chimera not given

[4] = target: T2, recombinant human Siglec-2/CD22 Fc …; test: ELISA, immobilized human CD22 Fc chimera; remark: listed apart in the source
biotinylated CD22 = biotinylated CD22 (UniProt P20273 20-687, limits assumed, biotinylated (site not stated)); test: Octet (BLI), biotinylated CD22 on streptavidin biosensors
[5] = target: T2, recombinant human Siglec-2/CD22 Fc …; test: ELISA, immobilized human CD22 Fc chimera, detection with anti-Pseudomonas exotoxin A antibody

Binder | In Vitro potency assay (pM): EC50 of Daudi cell death, CCK-8 [1] | In Vitro potency assay (EC50, normalized against HA22) [2] | EC50 [3] | EC50, normalized against HA22 [4] | Kd (biotinylated CD22) | EC50 [5]
Recombinant immunotoxin VH ver 1 + VL ver 4 (H1L4 by the HmLn naming of paragraph 88) (other, dsFv-PE38 heterodimer) VL: MDIQMTQSPSTLSASVGDRVTITCRASQDISNYLNWFQQRPGQSPRLLIYYTSILHSGVPSRFSGSGSGTDYTLTISSLQPEDFATYYCQQGNTLPWTFGCGTKVEIK MEVQLVESGGGLVKPGGSLRLSCAASGFAFSIYDMSWVRQAPGKCLEWVAYISSGGGTTYYPDSVKGRFTISRENAKNSLYLQMNSLKSEDTAMYYCARHSGYGTHWGVLFAYWGQGTMVTVSSKASGGPEGGSLAALTAHQACHLPLETFTRHRQPRGWEQLEQCGYPVQRLVALYLAARLSWNQVDQVIRNALASPGSGGDLGEAIREQPEQARLALTLAAAESERFVRQGTGNDEAGAANGPADSGDALLERNYPTGAEFLGDGGDVSFSTRGTQNWTVERLLQAHRQLEERGYVFVGYHGTFLEAAQSIVFGGVRARSQDLDAIWRGFYIAGDPALAYGYAQDQEPDARGRIRNGALLRVYVPRSSLPGFYRTSLTLAAPEAAGEVERLIGHPLPLRLDAITGPEEEGGRLETILGWPLAERTVVIPSAIPTDPRNVGGDLDPSSIPDKEQAISALPDYASQPGKPPREDLK | 13.8 pM | 4.12 fold of HA22 | 0.2 nM | 1.17 fold of HA22 |  | 
Recombinant immunotoxin VH ver 2 + HA22 VL (other, dsFv-PE38 heterodimer) VL: MDIQMTQTTSSLSASLGDRVTISCRASQDISNYLNWYQQKPDGTVKLLIYYTSILHSGVPSRFSGSGSGTDYSLTISNLEQEDFATYFCQQGNTLPWTFGCGTKLEIK MEVQLVESGGGLVKPGGSLRLSCAASGFAFSIYDMSWVRQTPEKCLEWVAYISSGGGTTYYPDSVKGRFTISRENAKNSLYLQMNSLKSEDTAMYYCARHSGYGTHWGVLFAYWGQGTMVTVSSKASGGPEGGSLAALTAHQACHLPLETFTRHRQPRGWEQLEQCGYPVQRLVALYLAARLSWNQVDQVIRNALASPGSGGDLGEAIREQPEQARLALTLAAAESERFVRQGTGNDEAGAANGPADSGDALLERNYPTGAEFLGDGGDVSFSTRGTQNWTVERLLQAHRQLEERGYVFVGYHGTFLEAAQSIVFGGVRARSQDLDAIWRGFYIAGDPALAYGYAQDQEPDARGRIRNGALLRVYVPRSSLPGFYRTSLTLAAPEAAGEVERLIGHPLPLRLDAITGPEEEGGRLETILGWPLAERTVVIPSAIPTDPRNVGGDLDPSSIPDKEQAISALPDYASQPGKPPREDLK |  |  | 0.64 nM | 0.89 fold of HA22 |  | 
HA22 (moxetumomab pasudotox; HA22 VH-PE38 + HA22 VL), made in-house (other, also called CAT-8015; HA22 VH / HA22 VL) VL: MDIQMTQTTSSLSASLGDRVTISCRASQDISNYLNWYQQKPDGTVKLLIYYTSILHSGVPSRFSGSGSGTDYSLTISNLEQEDFATYFCQQGNTLPWTFGCGTKLEIK MEVQLVESGGGLVKPGGSLKLSCAASGFAFSIYDMSWVRQTPEKCLEWVAYISSGGGTTYYPDTVKGRFTISRDNAKNTLYLQMSSLKSEDTAMYYCARHSGYGTHWGVLFAYWGQGTLVTVSAKASGGPEGGSLAALTAHQACHLPLETFTRHRQPRGWEQLEQCGYPVQRLVALYLAARLSWNQVDQVIRNALASPGSGGDLGEAIREQPEQARLALTLAAAESERFVRQGTGNDEAGAANGPADSGDALLERNYPTGAEFLGDGGDVSFSTRGTQNWTVERLLQAHRQLEERGYVFVGYHGTFLEAAQSIVFGGVRARSQDLDAIWRGFYIAGDPALAYGYAQDQEPDARGRIRNGALLRVYVPRSSLPGFYRTSLTLAAPEAAGEVERLIGHPLPLRLDAITGPEEEGGRLETILGWPLAERTVVIPSAIPTDPRNVGGDLDPSSIPDKEQAISALPDYASQPGKPPREDLK | 2.72 pM | 1 fold of HA22 | 0.47 nM | 1 fold of HA22 | 4.08 to 5.81 nM | 0.47 nM
Recombinant immunotoxin VH ver 1 + VL ver 3 (H1L3 by the HmLn naming of paragraph 88) (other) VL: MDIQMTQSPSTLSASVGDRVTITCRASQDISNYLNWFQQRPGQSPRRLIYYTSILHSGVPSRFSGSGSGTDYTLTISSLQPEDFATYYCQQGNTLPWTFGCGTKVEIK MEVQLVESGGGLVKPGGSLRLSCAASGFAFSIYDMSWVRQAPGKCLEWVAYISSGGGTTYYPDSVKGRFTISRENAKNSLYLQMNSLKSEDTAMYYCARHSGYGTHWGVLFAYWGQGTMVTVSSKASGGPEGGSLAALTAHQACHLPLETFTRHRQPRGWEQLEQCGYPVQRLVALYLAARLSWNQVDQVIRNALASPGSGGDLGEAIREQPEQARLALTLAAAESERFVRQGTGNDEAGAANGPADSGDALLERNYPTGAEFLGDGGDVSFSTRGTQNWTVERLLQAHRQLEERGYVFVGYHGTFLEAAQSIVFGGVRARSQDLDAIWRGFYIAGDPALAYGYAQDQEPDARGRIRNGALLRVYVPRSSLPGFYRTSLTLAAPEAAGEVERLIGHPLPLRLDAITGPEEEGGRLETILGWPLAERTVVIPSAIPTDPRNVGGDLDPSSIPDKEQAISALPDYASQPGKPPREDLK | 57.2 pM | 4.59 fold of HA22 |  |  |  | 
Recombinant immunotoxin VH ver 4 + VL ver 4 (H4L4 by the HmLn naming of paragraph 88) (other, dsFv-PE38 heterodimer; The fusion entry is used here) VL: MDIQMTQSPSTLSASVGDRVTITCRASQDISNYLNWFQQRPGQSPRLLIYYTSILHSGVPSRFSGSGSGTDYTLTISSLQPEDFATYYCQQGNTLPWTFGCGTKVEIK MEVQLVESGGGLVKPGGSLRLSCAASGFAFSIYDMSWIRQAPGKCLEWVAYISSGGGTTYYPGSVKGRFTISRENAKNSLYLQMNSLRAGDTAVYYCARHSGYGTHWGVLFAYWGQGTMVTVSSKASGGPEGGSLAALTAHQACHLPLETFTRHRQPRGWEQLEQCGYPVQRLVALYLAARLSWNQVDQVIRNALASPGSGGDLGEAIREQPEQARLALTLAAAESERFVRQGTGNDEAGAANGPADSGDALLERNYPTGAEFLGDGGDVSFSTRGTQNWTVERLLQAHRQLEERGYVFVGYHGTFLEAAQSIVFGGVRARSQDLDAIWRGFYIAGDPALAYGYAQDQEPDARGRIRNGALLRVYVPRSSLPGFYRTSLTLAAPEAAGEVERLIGHPLPLRLDAITGPEEEGGRLETILGWPLAERTVVIPSAIPTDPRNVGGDLDPSSIPDKEQAISALPDYASQPGKPPREDLK |  |  | 6.73 nM | 39.1 fold of HA22 |  | 
H2L2 humanized anti-CD22 recombinant immunotoxin (VH ver 2 + VL ver 2) (other, dsFv-PE38 heterodimer) VL: MDIQMTQSTSTLSASVGDRVTITCRASQDISNYLNWYQQRPDGSVKLLIYYTSILHSGVPSRFSGSGSGTDYTLTISSLQDEDFATYFCQQGNTLPWTFGCGTKVEIK MEVQLVESGGGLVKPGGSLRLSCAASGFAFSIYDMSWVRQTPEKCLEWVAYISSGGGTTYYPDSVKGRFTISRENAKNSLYLQMNSLKSEDTAMYYCARHSGYGTHWGVLFAYWGQGTMVTVSSKASGGPEGGSLAALTAHQACHLPLETFTRHRQPRGWEQLEQCGYPVQRLVALYLAARLSWNQVDQVIRNALASPGSGGDLGEAIREQPEQARLALTLAAAESERFVRQGTGNDEAGAANGPADSGDALLERNYPTGAEFLGDGGDVSFSTRGTQNWTVERLLQAHRQLEERGYVFVGYHGTFLEAAQSIVFGGVRARSQDLDAIWRGFYIAGDPALAYGYAQDQEPDARGRIRNGALLRVYVPRSSLPGFYRTSLTLAAPEAAGEVERLIGHPLPLRLDAITGPEEEGGRLETILGWPLAERTVVIPSAIPTDPRNVGGDLDPSSIPDKEQAISALPDYASQPGKPPREDLK | 4.26 pM | 1.23 fold of HA22 | 0.56 nM | 1.1 fold of HA22 | 5.01 to 7.02 nM | 0.56 nM
Recombinant immunotoxin VH ver 5 + VL ver 4 (H5L4 by the HmLn naming of paragraph 88) (other, dsFv-PE38 heterodimer) VL: MDIQMTQSPSTLSASVGDRVTITCRASQDISNYLNWFQQRPGQSPRLLIYYTSILHSGVPSRFSGSGSGTDYTLTISSLQPEDFATYYCQQGNTLPWTFGCGTKVEIK MEVQLVESGGGLVKPGGSLRLSCAASGFAFSIYDMSWIRQAPGKCLEWVAYISSGGGTTYYPGSVKGRFTISRENAKNSLYLQMNSLRSEDTAVYYCARHSGYGTHWGVLFAYWGQGTMVTVSSKASGGPEGGSLAALTAHQACHLPLETFTRHRQPRGWEQLEQCGYPVQRLVALYLAARLSWNQVDQVIRNALASPGSGGDLGEAIREQPEQARLALTLAAAESERFVRQGTGNDEAGAANGPADSGDALLERNYPTGAEFLGDGGDVSFSTRGTQNWTVERLLQAHRQLEERGYVFVGYHGTFLEAAQSIVFGGVRARSQDLDAIWRGFYIAGDPALAYGYAQDQEPDARGRIRNGALLRVYVPRSSLPGFYRTSLTLAAPEAAGEVERLIGHPLPLRLDAITGPEEEGGRLETILGWPLAERTVVIPSAIPTDPRNVGGDLDPSSIPDKEQAISALPDYASQPGKPPREDLK | 34.9 pM | 10.7 fold of HA22 | 2.15 nM | 12.5 fold of HA22 |  | 
H1L2 humanized anti-CD22 recombinant immunotoxin (VH ver 1 + VL ver 2) (other, dsFv-PE38 heterodimer, VH and VL linked by a disulfide bond) VL: MDIQMTQSTSTLSASVGDRVTITCRASQDISNYLNWYQQRPDGSVKLLIYYTSILHSGVPSRFSGSGSGTDYTLTISSLQDEDFATYFCQQGNTLPWTFGCGTKVEIK MEVQLVESGGGLVKPGGSLRLSCAASGFAFSIYDMSWVRQAPGKCLEWVAYISSGGGTTYYPDSVKGRFTISRENAKNSLYLQMNSLKSEDTAMYYCARHSGYGTHWGVLFAYWGQGTMVTVSSKASGGPEGGSLAALTAHQACHLPLETFTRHRQPRGWEQLEQCGYPVQRLVALYLAARLSWNQVDQVIRNALASPGSGGDLGEAIREQPEQARLALTLAAAESERFVRQGTGNDEAGAANGPADSGDALLERNYPTGAEFLGDGGDVSFSTRGTQNWTVERLLQAHRQLEERGYVFVGYHGTFLEAAQSIVFGGVRARSQDLDAIWRGFYIAGDPALAYGYAQDQEPDARGRIRNGALLRVYVPRSSLPGFYRTSLTLAAPEAAGEVERLIGHPLPLRLDAITGPEEEGGRLETILGWPLAERTVVIPSAIPTDPRNVGGDLDPSSIPDKEQAISALPDYASQPGKPPREDLK | 4.58 pM | 1.32 fold of HA22 | 0.54 nM | 0.81 fold of HA22 | 4.66 to 7.21 nM | 0.54 nM

From patent publication US20230372522A1 (KUNMING SINOWAY NATURAL PHARMACEUTICALS, published 2023)
